The data set deals with CC(=O)Oc1ccc([N+](=O)[O-])cc1. Description: purified protein. As to conditions: 50 mM Tris-HCl pH 8.0, room temperature, substrate 0.0015-3.0 mM.

Turning to EstRag (Lysinibacillus sp. YS11), the Km was 31 µM, the kcat stood at 20.4 s⁻¹ and the kcat/Km amounted to 658000 M⁻¹ s⁻¹.

What is called Km is the concentration of substrate that gives half-maximal velocity. The term kcat denotes the number of substrate molecules converted per active site and unit of time at saturation. A word on the kcat/Km: it is the turnover number divided by the Michaelis constant.

(Values after article PMC9452428, “Molecular study on recombinant cold-adapted, detergent- and alkali stable esterase (EstRag) from Lysinibacillus sp.: a member of family VI” (World Journal of Microbiology & Biotechnology, 2022).)
